Here are results for one molecule from PMC5342150, “PRMT5 competitively binds to CDK4 to promote G1-S transition upon glucose induction in hepatocellular carcinoma” (Oncotarget, 2016).

The target in experiment [1] is T1, 6× His-tagged p16^INK4a (human, UniProt P42771 1-156).
T1 construct: p16^INK4a, the major isoform of CDKN2A, human; also called His-p16^INK4a; CDKN2A
T1 sequence (looked up): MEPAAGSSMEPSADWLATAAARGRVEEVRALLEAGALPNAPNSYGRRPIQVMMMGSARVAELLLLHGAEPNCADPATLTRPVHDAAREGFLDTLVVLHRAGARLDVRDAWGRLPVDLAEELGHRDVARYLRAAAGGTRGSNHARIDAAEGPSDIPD
Put plainly: pull-down; binding reaction (500 μl) with 100 μl purified His-p16^INK4a (or His-PRMT5) and increasing amounts (50, 100, 200, 400 μl) of purified His-PRMT5 (or His-p16^INK4a) incubated with GST-fused CDK4 1-70 aa; Western blot. Conditions: both partners purified. For orientation: A western blot detects proteins with antibodies after separation by electrophoresis.

Experiment [2] concerns the target T2, 6× His-tagged PRMT5 (human, UniProt O14744 1-637).
T2 construct: protein arginine methyltransferase 5 (PRMT5), human; also called His-PRMT5
The experiment is described as above. The following applies: both partners purified.

T2 sequence (O14744 whole entry): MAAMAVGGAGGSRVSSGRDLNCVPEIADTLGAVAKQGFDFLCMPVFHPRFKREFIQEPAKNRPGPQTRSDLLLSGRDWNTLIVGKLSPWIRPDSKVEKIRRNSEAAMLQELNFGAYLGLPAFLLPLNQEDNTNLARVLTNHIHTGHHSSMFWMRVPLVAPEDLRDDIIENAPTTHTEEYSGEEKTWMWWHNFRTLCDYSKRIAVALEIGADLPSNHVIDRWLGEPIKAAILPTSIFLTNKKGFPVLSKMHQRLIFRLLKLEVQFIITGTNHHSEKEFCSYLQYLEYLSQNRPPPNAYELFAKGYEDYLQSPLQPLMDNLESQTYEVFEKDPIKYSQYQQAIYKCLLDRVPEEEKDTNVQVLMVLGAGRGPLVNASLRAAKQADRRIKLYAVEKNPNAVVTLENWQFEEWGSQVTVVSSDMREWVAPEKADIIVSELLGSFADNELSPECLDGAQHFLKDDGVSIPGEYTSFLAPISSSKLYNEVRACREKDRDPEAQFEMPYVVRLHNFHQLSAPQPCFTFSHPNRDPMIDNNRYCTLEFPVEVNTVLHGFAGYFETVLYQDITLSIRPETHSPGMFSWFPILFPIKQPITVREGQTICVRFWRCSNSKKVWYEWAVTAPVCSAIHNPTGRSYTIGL

B1: GST-fused CDK4 1-70 aa (domain or fragment, human, UniProt P11802-1 1-70, looked up)
chain: MATSRYEPVAEIGVGAYGTVYKARDPHSGHFVALKSVRVPNGGGGGGGLPISTVREVALLRRLEAFEHPN
notes: cyclin dependent kinase 4 (CDK4), human, amino acids 1-70 of NP_000066; also called GST-CDK4 fragment 1-70; source: E. coli BL21, purified (glutathione-Sepharose 4B beads)
For the molecule B1, the binding result in experiment [1] and in experiment [2] was “binds” each time.
